Source: article PMC2952587, “Identification of the Essential Brucella melitensis Porin Omp2b as a Suppressor of Bax-Induced Cell Death in Yeast in a Genome-Wide Screening” (PLoS ONE, 2010)

Target: the molecule itself
Assay: semi-denaturing gel with Western blot

B1: Brucella melitensis porin Omp2b (natural protein)
chain: ADAIVAPEPEAVEYVRVCDAYGAGYFYIPGTEICLRVHGYVRYDVKGGDDVYSGTDRNGWDKGARFALRVSTGSETELGTLKTFTELRFNYAANNSGVDGKYGNETSSGTVMEFAYIQLGGLRVGIDESEFHTFTGYLGDVINDDVISAGSYRTGKISYTFTGGNGFSAVIALEQGGDNDGGYTGTTNYHIDGYMPDVVGGLKYAGGWGSIAGVVAYDSVIEEWAAKVRGDVNITDQFSVWLQGAYSSAATPDQNYGQWGGDWAVWGGLKYQATQKAAFNLQAAHDDWGKTAVTANVAYELVPGFTVTPEVSYTKFGGEWKNTVAEDNAWGGIVRFQRSF
notes: also called BMEI1305
- stoichiometry N: 3
